Measured values published in patent US20140100172A1.
Each block holds one substance with its values, some of them ahead of it.

Experiments:
[1] = target: human chemokine receptor type 4 (CXCR4) (human) (UniProt P61073); test: competition with 125I-CPCR4 tracer on CXCR4-expressing cells
[2] = target: human chemokine receptor type 4 (CXCR4) (human) (UniProt P61073); test: radioligand competition binding; tracer 125I-CPCR4; Jurkat; site (1); set-up: unit not given here
[3] = target: human chemokine receptor type 4 (CXCR4) (human) (UniProt P61073); test: radioligand competition binding; tracer 125I-CPCR4; Jurkat; site (2); set-up: unit not given here
[4] = target: human chemokine receptor type 4 (CXCR4) (human) (UniProt P61073); test: radioligand competition binding; tracer 125I-CPCR4; CMS5/CXCR4; site (1); set-up: unit not given here
[5] = target: human chemokine receptor type 4 (CXCR4) (human) (UniProt P61073); test: radioligand competition binding; tracer 125I-CPCR4; CMS5/CXCR4; site (2); set-up: unit not given here
[6] = target: human chemokine receptor type 4 (CXCR4) (human) (UniProt P61073); test: radioligand competition binding; tracer 125I-SDF-1α; CMS5/CXCR4; site (1); set-up: unit not given here
[7] = target: human chemokine receptor type 4 (CXCR4) (human) (UniProt P61073); test: radioligand competition binding; tracer 125I-SDF-1α; CMS5/CXCR4; site (2); set-up: unit not given here
[8] = target: human chemokine receptor type 4 (CXCR4) (human) (UniProt P61073); test: radioligand competition binding; Jurkat cells
[9] = target: human chemokine receptor type 4 (CXCR4) (human) (UniProt P61073); test: radioligand competition binding; CMS5/CXCR4 cells
[10] = target: human chemokine receptor type 4 (CXCR4) (human) (UniProt P61073); test: radioligand competition binding; tracer 125I-CPCR4
[11] = target: human chemokine receptor type 4 (CXCR4) (human) (UniProt P61073); test: radioligand competition binding; tracer 125I-SDF-1α
[12] = target: human chemokine receptor type 4 (CXCR4) (human) (UniProt P61073); test: radioligand competition binding; tracer 125I-CPCR4; Jurkat; set-up: unit not given here
[13] = target: human chemokine receptor type 4 (CXCR4) (human) (UniProt P61073); test: radioligand competition binding; tracer 125I-CPCR4; CMS5/CXCR4; set-up: unit not given here

Chain of human chemokine receptor type 4 (CXCR4) (human) (P61073 whole entry): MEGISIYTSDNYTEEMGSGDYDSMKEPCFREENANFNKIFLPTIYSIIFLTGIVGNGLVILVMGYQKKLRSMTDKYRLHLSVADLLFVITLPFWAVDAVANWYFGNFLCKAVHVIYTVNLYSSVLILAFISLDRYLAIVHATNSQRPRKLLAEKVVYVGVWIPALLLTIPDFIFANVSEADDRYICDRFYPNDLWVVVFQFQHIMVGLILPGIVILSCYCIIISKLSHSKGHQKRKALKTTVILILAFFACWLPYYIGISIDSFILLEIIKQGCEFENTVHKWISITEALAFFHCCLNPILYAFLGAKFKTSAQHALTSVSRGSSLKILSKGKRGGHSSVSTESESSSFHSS

Substance: cyc[D-Tyr-Orn(FB)-Arg-Nal-Gly] (peptide)
IC50 [1]: 11 nM

Substance: cyc[D-Tyr-Orn(Bz, FB)-Arg-Nal-Gly] (peptide)
IC50 [1]: 100 nM

Substance: cyc[Nal-Gly-D-Tyr-Arg-Orn] (peptide)
IC50 [1]: 1000 nM

Substance: CPCR4, cyclo[D-Tyr-Arg-Arg-Nal-Gly]
IC50 [10]: 3.8 nM
IC50 [11]: 5.5 nM
IC50 [12]: 3.7 ?
IC50 [13]: 6.8 ?
IC50 [6]: 0.01 ?
IC50 [7]: 6.9 ?

Substance: cyc[D-Tyr-Orn(Ahx)-Arg-Nal-Gly] (peptide)
IC50 [1]: 70 nM

Substance: cyc[D-Tyr-(Me)D-Orn(Me, FB)-Arg-Nal-Gly] (peptide)
IC50 [1]: 59 nM

More lines, now with the values ahead:

IC50 [1]: 9 nM
Substance: cyc[Nal-Gly-D-Tyr-Orn-Arg] (peptide)

IC50 [2]: 0.01 ?
IC50 [3]: 4.6 ?
IC50 [4]: 0.01 ?
IC50 [5]: 3.5 ?
IC50 [6]: 0.02 ?
IC50 [7]: 8.8 ?
Substance: Iodo-CPCR4

IC50 [8]: 4 nM
IC50 [9]: 6.5 nM
Substance: 125I-CPCR4

IC50 [1]: 86 nM
Substance: cyc[D-Tyr-D-Orn(FB)-Arg-Nal-Gly] (peptide)
